Results reported in WO1995025167A1.

Columns and labels:
[1] = target: EGFR on EGFR-bearing tumor cells (human) (UniProt P00533); assay: flow cytometry, crude bacterial supernatant on A431 cells, positive control
[2] = target: EGFR on EGFR-bearing tumor cells (human) (UniProt P00533); assay: flow cytometry, crude bacterial supernatant on HT29 cells, positive control
[3] = target: EGFR on EGFR-bearing tumor cells (human) (UniProt P00533); assay: flow cytometry, crude bacterial supernatant on MDA MB 231 cells, positive control

mean fluorescence (cytometric analysis) (arbitrary fluorescence units) [1]: 85.5
mean fluorescence (cytometric analysis) (arbitrary fluorescence units) [2]: 2.5
mean fluorescence (cytometric analysis) (arbitrary fluorescence units) [3]: 21.3
Substance: scFv derived from MAb 425
